Test results published in article PMC5577365 (Nature chemical biology, 2017).
Ends that are not written are not given here.

Tests used:
[1] = molecular target: wild-type Abl1 (ABL1 SH3 domain) (human, UniProt P00519 61-121); assay: fluorescence polarisation
[2] = molecular target: Abl1-Pmp52 (ABL1 SH3 domain with Pmp at position 52) (human, 4-phosphomethyl-L-phenylalanine (Pmp) at position 52); assay: fluorescence polarisation

Sequence of wild-type Abl1 (ABL1 SH3 domain) (P00519 whole entry, looked up, the tested form may be a part): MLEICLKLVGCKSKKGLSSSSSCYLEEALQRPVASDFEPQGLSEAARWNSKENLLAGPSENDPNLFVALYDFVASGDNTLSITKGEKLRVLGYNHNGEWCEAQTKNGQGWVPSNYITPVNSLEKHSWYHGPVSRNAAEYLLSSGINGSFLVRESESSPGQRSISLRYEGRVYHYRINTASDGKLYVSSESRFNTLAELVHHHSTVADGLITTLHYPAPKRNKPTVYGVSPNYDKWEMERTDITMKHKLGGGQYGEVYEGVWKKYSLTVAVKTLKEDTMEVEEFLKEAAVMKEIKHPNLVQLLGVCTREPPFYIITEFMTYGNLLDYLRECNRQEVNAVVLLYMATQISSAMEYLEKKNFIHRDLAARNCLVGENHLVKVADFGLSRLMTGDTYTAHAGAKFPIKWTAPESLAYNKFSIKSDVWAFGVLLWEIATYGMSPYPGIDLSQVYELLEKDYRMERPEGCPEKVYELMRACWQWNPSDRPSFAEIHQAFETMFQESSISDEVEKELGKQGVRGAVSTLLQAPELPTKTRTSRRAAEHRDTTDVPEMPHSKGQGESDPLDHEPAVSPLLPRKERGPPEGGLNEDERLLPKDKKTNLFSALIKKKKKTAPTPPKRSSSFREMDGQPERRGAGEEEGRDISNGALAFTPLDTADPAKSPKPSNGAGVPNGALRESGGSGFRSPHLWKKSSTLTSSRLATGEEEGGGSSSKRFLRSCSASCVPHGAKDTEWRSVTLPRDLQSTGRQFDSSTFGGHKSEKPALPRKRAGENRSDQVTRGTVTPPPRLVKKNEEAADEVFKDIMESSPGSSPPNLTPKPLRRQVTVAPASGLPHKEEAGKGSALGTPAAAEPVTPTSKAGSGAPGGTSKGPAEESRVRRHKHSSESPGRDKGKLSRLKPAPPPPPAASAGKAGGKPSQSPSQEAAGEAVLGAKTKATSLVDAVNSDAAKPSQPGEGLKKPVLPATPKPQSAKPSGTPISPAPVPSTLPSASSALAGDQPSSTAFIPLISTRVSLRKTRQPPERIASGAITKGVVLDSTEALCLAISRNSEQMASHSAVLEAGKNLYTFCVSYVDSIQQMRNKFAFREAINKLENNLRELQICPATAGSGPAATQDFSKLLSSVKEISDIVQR

B1: 3BP2 peptide (FAM labeled) (peptide)
chain: PPAYPPPPVP
modifications: also: FAM label, position not given here
Q: What does the source list for B1?
A: Kd [1]: 5 ± 0.8 µM; Kd [2]: 5 ± 0.8 µM
